± gives the uncertainty stated by the source.

The data set can be described thus: amyloid nucleation score (Sup35N fusion, yeast selection) (log enrichment); library NNK3; higher = more nucleation; inactive = no reads after selection. Put shortly: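 On medium lacking adenine and uracil, psi-negative yeast expressing peptides of 20 random codons fused to Sup35N were grown 7 days at 30°C after a 24-hour induction with 100 μM copper sulfate. Illumina sequencing of input and output plasmid inserts gave the reads, and sequences under 100 input reads were excluded. The nucleation score is the DiMSum log enrichment of output over input reads, centred on the mode score of non-aggregating sequences.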
CVNKFLSVPSIDSEDFCYLV: the amyloid nucleation score result was “inactive”.

As for RFATGCDYLLRRW, the amyloid nucleation score result is “inactive”.

With RPFKFMKLFHIMCVVDVYCM, the amyloid nucleation score result is “inactive”.

In the case of YVLSATG, the amyloid nucleation score result is “inactive”.

For ANKWESGSNALLDISVLMFW, the amyloid nucleation score entry is “inactive”.

WLLKIMQYLDLAGNG: the amyloid nucleation score entry was “inactive”.

IIWLWGNNGKYTMGFLGIGG: the amyloid nucleation score result is “inactive”.

FVCLSNIHMGTKTVILAMCL: the amyloid nucleation score result was “inactive”.

Turning to CMLNRNFWVVYSHVGRRRL, the amyloid nucleation score entry is “inactive”.

In turn, FGLEFWTYTSIRFWLEYKPH had an amyloid nucleation score of 0.972 ± 0.099.

Regarding YDGIKSGFECLESGRKCKTA, the amyloid nucleation score result was “inactive”.

For the substance QRTFG, the amyloid nucleation score result was “inactive”.

In the case of FFAILHLRVNARMCYGNGAY, the amyloid nucleation score was determined as 0.435 ± 0.48.

With SGNNMRLHTTGLVASNGLGS, the amyloid nucleation score entry was “inactive”.

Consider VYVGVLVFITWYLSSLYNWA, for which the amyloid nucleation score result is “inactive”.

For the substance SYMLWYSS, the amyloid nucleation score entry is “inactive”.

For the substance MYRNECSMLSSIHLTVPSGN, the amyloid nucleation score result is “inactive”.

The substance LNEYNINDFTLFSCTFIGNV had an amyloid nucleation score of 2.73 ± 0.081.

In turn, CCNYFLNIIYVVQV came in with an amyloid nucleation score of 3.14 ± 0.058.

For the substance SLPYCGVTSLSHSWVPMAIR, the amyloid nucleation score result was “inactive”.

As to IWKLHITLLSYRSILHVLHM, the amyloid nucleation score entry was “inactive”.

As for NCGVMEYGGILISYFE, the amyloid nucleation score entry was “inactive”.

For LWTELYVYPLNMTVMVAIF, the amyloid nucleation score result was “inactive”.

For LSIVLGEDLMRCTRSDSVWK, the amyloid nucleation score entry is “inactive”.

In turn, FMGFFYNFYVPKLKSSVHNE yielded an amyloid nucleation score of 0.303 ± 0.34.

Regarding SWLFVDLYSFHFCFSNYVSY, the amyloid nucleation score result is “inactive”.

As for TCSKVFQYG, the amyloid nucleation score result is “inactive”.

On to HFLMFMRIIWVLRCPQVESP, for which the amyloid nucleation score result was “inactive”.

Turning to LLWVQQHWLKNDTLVTYKAK, the amyloid nucleation score entry is “inactive”.

Consider SFYFWSDAYACIKARRM, for which the amyloid nucleation score result was “inactive”.

As to HSVGWHFPLCFSTQMTLVRS, the amyloid nucleation score result is “inactive”.

With DRFLLFFH, the amyloid nucleation score entry is “inactive”.

VKKLSKVHDSCGMREVLGCH: the amyloid nucleation score is -0.36 ± 1.1.

For VLPNYPSFNSSYICWYFWYL, the amyloid nucleation score entry is “inactive”.

As for LFKGGDSICYSHWSVRSSRK, the amyloid nucleation score worked out at 1.09 ± 0.12.

Substance TAYSLMSIVFGWQPPKCGYE registered an amyloid nucleation score of 0.648 ± 0.2.

As for FWSGIWSNTFRFYGAVIWPG, the amyloid nucleation score result was “inactive”.

In turn, IFNWPSQTVLHIYKSAHVNM had an amyloid nucleation score of 2.35 ± 0.066.

As to CHSRTDKNSFC, the amyloid nucleation score result was “inactive”.

Turning to CRVEVAICHRPLCSKVTLDG, the amyloid nucleation score entry is “inactive”.

For CLFFKHLLLGDDVLLLTYLR, the amyloid nucleation score result was “inactive”.

Turning to NYLKFCFSCRCIVLSRTVSW, the amyloid nucleation score entry is “inactive”.

In the case of ATLYNSVRLC, the amyloid nucleation score entry is “inactive”.

In the case of YAKCSDVY, the amyloid nucleation score entry was “inactive”.

For the substance EIVTRERIPEWYSLLLMGLP, the amyloid nucleation score result was “inactive”.

For RFFLYFNCAWVILMWCKRIV, the amyloid nucleation score entry is “inactive”.

Consider PHAYTVIDSSRFRPKERLCG, for which the amyloid nucleation score result is “inactive”.

Regarding LRTGCSYNSREGHNTLGRSS, the amyloid nucleation score entry was “inactive”.

Consider NNYTSPMHRFRSNLFHCVSA, for which the amyloid nucleation score result is “inactive”.

DMGLYLFFIYLCGVRDLLST: the amyloid nucleation score entry was “inactive”.

Turning to IWASRS, the amyloid nucleation score entry was “inactive”.

Consider ETMVIDWCSTVDRVR, for which the amyloid nucleation score result was “inactive”.

For FKRLLARV, the amyloid nucleation score is -0.362 ± 0.98.

With YVHFAN, the amyloid nucleation score result was “inactive”.

Substance AYIIN had an amyloid nucleation score of -0.363 ± 0.82.

Consider GISYNSV, for which the amyloid nucleation score result was “inactive”.

Consider FCTVNH, for which the amyloid nucleation score entry was “inactive”.

Take SDGLLLPRSRNVATVEMGDL: the amyloid nucleation score result is “inactive”.

As to LFFLRRNCHTDVSSLEYDNA, the amyloid nucleation score result was “inactive”.

With FPIDC, the amyloid nucleation score was determined as 0.082 ± 0.58.

In the case of YFRNHSRVDDLDGGRRDVFR, the amyloid nucleation score result was “inactive”.

Turning to NNTEHS, the amyloid nucleation score result was “inactive”.

Take RNVWRCSLPYHFIF: the amyloid nucleation score entry was “inactive”.

Substance WKGPNRQSMLHGLPLYIYQI came in with an amyloid nucleation score of -0.305 ± 0.66.

For FLSVECLRAMTWCQLLDAGS, the amyloid nucleation score result was “inactive”.

With NNCVITFFEFSTWGCLYLKF, the amyloid nucleation score result is “inactive”.

Regarding RARNTKLCNLSVCMTMGPEA, the amyloid nucleation score result was “inactive”.

In the case of FSCIKTRMVGYSLRLNQFVD, the amyloid nucleation score entry is “inactive”.

For the substance KFARV, the amyloid nucleation score entry was “inactive”.

As for SVYPYESYLVW, the amyloid nucleation score entry is “inactive”.

In the case of SIINLDLTAGHRYFYSSRSR, the amyloid nucleation score was 2.11 ± 0.071.

With MVSMNSAAFLFRCHYCLGVR, the amyloid nucleation score entry was “inactive”.

With FRVVNMSWCAPNLTLRFKYL, the amyloid nucleation score entry was “inactive”.

As to TYCLKLMSQAAPTIEKT, the amyloid nucleation score result is “inactive”.

As for YYGMMYEGGYAVIDIGLGHL, the amyloid nucleation score entry is “inactive”.

With SSSVKEMQQPVTTTLETQST, the amyloid nucleation score result was “inactive”.

Consider FFIYKFYPFRGISLSAVRIR, for which the amyloid nucleation score entry is “inactive”.

Regarding FVMGMNAVQRSLSSIYTLCV, the amyloid nucleation score entry is “inactive”.

Take AKVKIWAWASIGCPPMQALV: the amyloid nucleation score result was “inactive”.

As to HQFFVVNSRDWLGHSSKFRF, the amyloid nucleation score is 0.814 ± 0.12.

Take MNRNLLFASTLTFNFVLFVW: the amyloid nucleation score entry is “inactive”.

KLDTVYRPSMRACVCNREFV displayed an amyloid nucleation score of -0.515 ± 1.1.

As for FPCSGPACYIYYTLHGLSLG, the amyloid nucleation score entry was “inactive”.

As for NVFMTWYTARGFMCYPSWDR, the amyloid nucleation score was 0.324 ± 0.43.

TISLGE: the amyloid nucleation score result is “inactive”.

For the substance LMVVWMLYGNNTCYDALMLC, the amyloid nucleation score result is “inactive”.

In the case of SLSMATFKAILSLFADTWWR, the amyloid nucleation score entry was “inactive”.

On to VSYVCDPLRKIVGTLVRKQV, for which the amyloid nucleation score stood at 0.563 ± 0.33.

Take LLTFSMVDKFLSDNSYLNGI: the amyloid nucleation score result was “inactive”.

Turning to VCVLMIFNIVRRGMYSSARV, the amyloid nucleation score entry is “inactive”.

Take NLNYNLSPLTEYSVSD: the amyloid nucleation score result was “inactive”.

With LCVIWIVSHRRDCMAFCEQQ, the amyloid nucleation score result was “inactive”.

Consider SLSLRWFVGCKGSDGSALQC, for which the amyloid nucleation score entry is “inactive”.

In the case of SQSGELFSDMMVLLG, the amyloid nucleation score entry is “inactive”.

For TVTWDWNRSEEGRCYLLLWV, the amyloid nucleation score entry is “inactive”.

On to PLKCGFGPACPDFYIVEGGK, for which the amyloid nucleation score result is “inactive”.

The values above are taken from the supplement of paper PMC12042874.
